Molecular target: CaMKIV
Assay: cell-based or functional assay

B1: tatCN21 (peptide)
peptide: YGRKKRRQRRRKRPPKLGQIGRSKRVVIEDDR
modifications: not checked
B1 was tested, and the kinase activity in a kinase panel, 5 µM tatCN21, reduction was 35%.

— patent publication US20120015885A1
